Measured values reported in the nanobody polyreactivity screen of Harvey et al. (2022).

Assay: yeast display, Sf9 membrane polyspecificity reagent, FACS + sequencing; frameworks hold sequencing errors
Summary of the method: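 Nanobodies from a synthetic yeast display library (Saccharomyces cerevisiae BJ5465), induced 36–48 hours with galactose, were stained 1 hour at 4 °C with 10% biotinylated, detergent-solubilized Sf9 membrane reagent, enriched on streptavidin microbeads, then FACS-sorted. Anti-HA (expression) and streptavidin (reagent binding) fluorescence set low and high (top ~1%) gates. Polyreactivity labels come from the gate of origin. Genes were colony-PCR amplified, MiSeq 2 × 250 sequenced and filtered by CDR length.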

Row | Sequence | polyreactivity (PSR sort gate)
1 | QVQLVESGGGLVQAGGSLRLSCDASGIFVGYTLGWYRQAPRKERELVAAIRWTDGSTYYADSVKGRFTISRDNAKNTVYLQRNSLNPEDTAVYDCGADSNDPARYYYGDEFEDEYWGQGTQVTVSS | low polyreactivity
2 | QVQLVESGGGLVQAGGSLRLSCDASGIIFGFNTMGWYRQAPVKERELVAAINGSDGSTYADSVKGRFTISRDNAKNTVYLQMISVKPEDTAVYYCAKALDYRYRRYDYWGQGTQVTVSS | low polyreactivity
3 | QVQLVESGGGLVQAGGSLRLSCDASGIIFVKYAMGWYRQAPGKERELVAAITSGGSTYYADSVKGRFTISRDNAKNTVYLQMNSLKPEDTAVYYCNADTWFLYFFTINGYWGQGTQVTVSS | high polyreactivity
4 | QVQLVESGGGLVQAGGSLRLSCDASGITFWGYVMGWYRQAPGKERELVAAISSSGGRTYYADSVKGRFTISLDNAKNTVYLQMNSLKPEDTAVYYCAARFLYANRYSVDYDYCGQGTQVTVSS | high polyreactivity
5 | QVQLVESGGGLVQAGGSLRLSCDASGITFWNALGWYRQAPGKERELVAAITSSGGSTYYADSVKGRFTISRDNAKNTVDLQMNSLKPEDTAVYYCAADYGRTRYDMDYWGQGTQVTVSS | low polyreactivity
6 | QVQLVESGGGLVQAGGSLRLSCDASGITITEYARGWYRQAPGTERELVAVISSVGTMYYADSVKGRFTISRDNEKNTVYLQMKSLKPEDTAVYYCAADYTDDGEYPYWSGSDYWGQGTQVTVSS | low polyreactivity
7 | QVQLVESGGGLVQAGGSLRLSCDASGLTFAYYAMGWYRQAPGKERELVAAISSSGGRTYYADSVKGRFTISRDNAKNTVYLQMNSLKPEDTAVYYCAKSRYSTQTDYNYWGQGTQVTVSS | high polyreactivity
8 | QVQLVESGGGLVQAGGSLRLSCDASGLTFDYNAMGWYRQAPGKERELVAAITWSGGSTYYADSVKGRFTISRDNAKNTVYLQMNSLKPEDTAVYYCARDGVGRGYGYFTPLGYDYWGQGTQVTVSS | low polyreactivity
9 | QVQLVESGGGLVQAGGSLRLSCDASGLTFGWNAMGWSRQAPGKERELVAALSYNGVSTHYADTVKGRFTISRDNAKNTVYLQMNSLKPEDTAVYYCAARALTWPYGGTAPRLYNYWGQGTQVTVSS | low polyreactivity
10 | QVQLVESGGGLVQAGGSLRLSCDASGLTFHRYAMGWYRQAPGKERELVAAINYSGGRTYYADSVKGRFTISRDNAKNTFYLQMNSLKPEDTAVYYCAAPRASGYFWGQGTQLTVSS | high polyreactivity
11 | QVQLVESGGGLVQAGGSLRLSCDASGRIFGSYAMGWYRQAPGKERELVAAITYSGGRTYYADSVKGRFTISRDNAKNTVYLQMNSLKPEDTAVYYCNALGRLTSQYDYWGQGTQVTVSS | high polyreactivity
12 | QVQLVESGGGLVQAGGSLRLSCDASGRIFRKYAMGWYRQAPGKERELVAGITWRGTSTYYADSVKGRFTISRDNAKNTVYLPMNSLKPEDTAVYYCAAEWKGYYVHDYWGQGTQVTVSS | high polyreactivity
13 | QVQLVESGGGLVQAGGSLRLSCDASGRIFSYYAMGWYRPAPGKERELVAAITRSGGNTYYADSVKGRFTISRDNAKNTVYLLMNSLKPEDTAVYYCAARLGRPFYGPNRYDYWGQGTQVTVSS | high polyreactivity
14 | QVQLVESGGGLVQAGGSLRLSCDASGRIFTTYAMGWYRQAPGKERELVARITWSAGRTYYADSVKGRFTISRDNAKNTVYLQMNSLKPEDTAVYYCAADGGISAGANSGYDYWGQGTQVTVSS | high polyreactivity
15 | QVQLVESGGGLVQAGGSLRLSCDASGRIFVYYAMGWYRQAPGKERELVAAINSGGTTKYADSVKGRFTISRDNAKNTVYLQMNSLKPEDTAVYYCAAEPLTPSRDRVPYEYYYWGQGTQVTVSS | high polyreactivity
16 | QVQLVESGGGLVQAGGSLRLSCDASGRIFYANAMGWYRQAPGKERELVAGISSGGITNYADSVKGRFTISRDNAKNTVYLQMNSLKPEDTAVYYCAARRWSTGGYGQFDYWGQGTQVTVSS | low polyreactivity
17 | QVQLVESGGGLVQAGGSLRLSCDASGRILTSNAMGWYRQPPGKERELVAAISWSGGSTYYADSVKGRFTISRDNAKNTVYLQMNSLKPEDTAVYYCAAPFTTTFDYWGQGTQVTVSS | low polyreactivity
18 | QVQLVESGGGLVQAGGSLRLSCDASGRISGSYVMGWYRQAPRKERELVAGISGRGGSTYYADSVKGRFTISRDNAKNTVDLQMNSLKPEDTAVYYCAVVDRTSKGNSYYWGQGTQVTVSS | high polyreactivity
19 | QVQLVESGGGLVQAGGSLRLSCDASGRTFGRNAMGWYRQAPGERELGAVISRGGSTYYADSVKGRFTISRDNAKNTVYLQRNSLKPEDTAVYYCNADTVYTRTAPYDYWGQGTQVTVSS | low polyreactivity
20 | QVQLVESGGGLVQAGGSLRLSCDASGRTFPDYAIGWYIQAPGKESELVAAISGSGGSTYYADSVKGRFTISRDNAKNTVYLQMNSLKPEDTAVYYCAAEAETLLWYWFPSAVDYWGQGTQVTVSS | high polyreactivity
21 | QVQLVESGGGLVQAGGSLRLSCDASGRTFQYYAMGWYRQAPGKVRELVAGISSCGGSTYYADSVKGRFTISRDNAKNTVDLQMNSLKPEDTAVYYCNKARYFTGQRYDYWGQGTQVTVSS | high polyreactivity
22 | QVQLVESGGGLVQAGGSLRLSCDASGRTFSSNAMGWYRQAHGKERELVAAISFRGGRTFYADSVKGRFTISRDNAKNTVYLQMNSLKPEDTAVYYCNAVPETRTYDYWGQGTQVTVSS | high polyreactivity

Row | Sequence | polyreactivity (PSR sort gate)
23 | QVQLVESGGGLVQAGGSLRLSCDASGSIFAPNSMGWYRQAPGKERELVAAITSSGCRTYYADSVKGRFTISRDNAMNTFYLQMNSLKPVDSAVYYWIAGFYVRRDYDYWGQGTQVTVSS | low polyreactivity
24 | QVQLVESGGGLVQAGGSLRLSCDASGSIFILYAMGWYRQAPGKERELVAGITLSTGTTSYADSVKGRFTISRDNAKNTVYLQMNSLKPVDTAVYYCNAVPSQHDEFDYWGQGTQVTVSS | low polyreactivity
25 | QVQLVESGGGLVQAGGSLRLSCDASGSIFPHNAMGWYRQAPGKERELVAAISVSGGSKYYADSVKGRFTISRDNAKNTVYLQMNSLKPEDTAVYYCAAYAYGGRINGYRTYRYNYWGQGTQVTVSS | high polyreactivity
26 | QVQLVESGGGLVQAGGSLRLSCDASGSIFPYNAMGWFRQAPGKEWELVAAISKRGGSTYYADSVKGRFTISRDNAKNTVYLQMNSLKPEDSAVYYCAARYPPYRSWYSYDSWGQGTQVTVSS | low polyreactivity
27 | QVQLVESGGGLVQAGGSLRLSCDASGSIFSIYAMGWYRQAPGKERELVAAISSGGSTYYADSVKGRFTISRDNAKNTVYLQMNSLKPEDTAVYYCAADAAYYSGYDYWGQGTQVTVSS | low polyreactivity
28 | QVQLVESGGGLVQAGGSLRLSCDASGSIFTPYAMGWYRQAPGKERELVAAINWNGGRTYYADSVKGRFTISRDNAKNRVYLQMNCLKPEDTAVYYCFLYYWANYPYNYWGQGTQVNVSS | low polyreactivity
29 | QVQLVESGGGLVQAGGSLRLSCDASGSIFYDNAKGWYRQAPGKERELVATIRGGGNTYYADSVKGRFTISRDNAKNTVYLQMNSLKPEDTAVNYCAKQSDFPVVPLVYGVYGYDYWGQGTQVTVSS | low polyreactivity
30 | QVQLVESGGGLVQAGGSLRLSCDASGSIFYGYAMGWYRQAPGKERELVASITGSGGSTSYADSVKGRFTISRDNAKKTVYLQMNSLKPEDTAVYYCNTVLLQLYKLASGFDYWGQGTQVTVSS | high polyreactivity
31 | QVQLVESGGGLVQAGGSLRLSCDASGSIIGFYAMVWYRQAPGKERELVASISSSGDSTYYADSVKGRFTFSRDIAKNTVYLQMNSLIPEDTAVYYCAAVVYDIYGYEFDYWGQGTQLTVSS | low polyreactivity
32 | QVQLVESGGGLVQAGGSLRLSCDASGSILPGYAMGWYRQEPGKEMELVAAISYRGTSTYYADSVKGRFTISRDNAKNTFYLQMNSLKPEDTAVYYCAAGGSWFRYPPSMDYWGQGTQVTVSS | high polyreactivity
33 | QVQLVESGGGLVQAGGSLRLSCDASGSTFGTYAMGWYRQAPGKERELVATITYRGGSTNYADSVKGRFTISRDNAKNTVYLQMISLKPEDTAVYYCAADYFSQLAGIFDYWGLGTQVTVSS | low polyreactivity
34 | QVQLVESGGGLVQAGGSLRLSCDASGSTFRSYAMGWYRQAHGKERELVASISGRGGSTYYADSVKGRFTISRDNAKNTVYLQMNSLKPEDTAVYYCAKRYRVSYYPYADPYGYWGQGTQVTVSS | low polyreactivity
35 | QVQLVESGGGLVQAGGSLRLSCDASGSTFSYYAMGWYRQAPGKERDLVAAISSSGVRTYYADSVKGRFTISRDNAKNTVYLQMNSQKPEDTAVYYCAAGSRRGWLYRNRLWADYDYWGQGTQVTVSS | high polyreactivity
36 | QVQLVESGGGLVQAGGSLRLSCDASGSTFVHYAMGWYRQAPGKERQLVAAISSSGDSTYYADSVKGRFTISRDNAKNTVYLKMNSLKPEDTAVYYCAVRSRTPRAYYYWGQGTQVTVSS | low polyreactivity
37 | QVQLVESGGGLVQAGGSLRLSCDASGSTRIYAMGWYTQAPGKERELVAAISWTGGRTYYADSVKGRFTISRDNAKYTVYLQMNSLKPEDTAVYYCAAKGSGRDYWGQGTLVTVSS | high polyreactivity
38 | QVQLVESGGGLVQAGGSLRLSCDASGSTSYLYAMGCYRQAPGKARELVAAIPWRSVRTSYADSVKGRFTFSRDNAKNTVYLQMNSLKPEDTAVYYCNAVGYTRGRSTYDYWGQGTQVTVSS | high polyreactivity
39 | QVQLVESGGGLVQAGGSLRLSCDASGYTFRRYAMGWYIQAPGKEREMVAAITNSGGSTYYADSVKGRFTISRDNAKNTVYLQMNSLKPEDTAVYYCVALRSAGAYDYWGQGTQVTVSS | low polyreactivity
40 | QVQLVESGGGLVQAGGSLRLSCDASVSIFQPYAMGWYRQAPGKERELVAAISSSGGSTTYADSVKGRFTISRDNAKNTVYLQMKSLKPEDTAVYYCAADSADDMGYWGQGTQVTVSS | low polyreactivity
41 | QVQLVESGGGLVQAGGSLRLSCDCSGRIFKRYDMGWYRQAPGKERELVAAITGTGGSTYYADSVKGRFTISRDNAKNTVYLQMNSLKPEDTAVYYCAARLYNTYSGFAFGYWGQGTQVTVSS | high polyreactivity
42 | QVQLVESGGGLVQAGGSLRLSCDDSGGIFGFYSMGWYRQAPGKERELVAAISGDGGSTYYADSVKGRFTISRDNATNTVYLQMNSLKPEDTAVYYCTAAFFTEYYQGDYWGQGTQVTVSS | low polyreactivity
43 | QVQLVESGGGLVQAGGSLRLSCDDSGSTFVINDMGWYRQAPGKERELVAAITWGSGSTSYADSVKGRCTISRDNAKNTVYGQMISLKPEDTEVYYCAADVYLGLFGYYAEYNDYWGQGTQVTVSS | low polyreactivity
